This assay concerns the target 3xFLAG::mScarlet::WAGO-4 (UniProt O62275). The experiment in a line: in vitro phase separation (condensate partitioning, confocal fluorescence microscopy).

“minimal P granules (condensates of PGL-1, PGL-3, GLH-1 and GLH-4 with poly-A+ mRNA), WT GLH-1 and GLH-4 (from UniProt Q9TZQ3;G5EBV6;P34689;O76743) GLH-1(F→A); GLH-4(F→A)”: the other: condensed / dilute phase mScarlet::WAGO-4 fluorescence ratio reads like this: (second replicate, n = 36 ROIs, buffer-only negative control ratios in the same panel: WT 1.36, FG* 1.41, parent: 2.45) 2.09; (single experiment, n = 32-36 ROIs, buffer-only negative control ratios in the same panel: WT 1.36, FG* 1.32, parent: 3.04) 2.53.

For the origin of these results see article PMC12669755.
